Non-standard residues stand in square brackets, D forms with d. Y‑mPEG ~40 kDa = Y-mPEG amine, ~40 kDa, coupled at C-terminal carboxyl; Hyp = O=C(O)[C@@H]1C[C@@H](O)CN1; Chg = N[C@H](C(=O)O)C1CCCCC1
Legend:
[1] = target: active PSA (Homo sapiens, UniProt P07288); experiment: In vitro activation (cleavage) of agent by enzymatically active PSA, kinetic fluorescence reading; assay type: biochemical; conditions: 0.5 μM agent, 0.1 μM activated enzyme, TCNB buffer pH 7.5
Description: (§1) Data in FIG. 1 depict activation of the prostate specific antigen activatable agents (compound A10).
(§2) Kinetic fluorescence readings were performed in a Gemini fluorescence plate reader at different times after adding the enzyme.
(§3) In this experiment, fluorescence is only associated with the test agents (compound A10) in the prescence of active PSA described herein.

[2] = target: complexed PSA (Homo sapiens, UniProt P07288); experiment: In vitro activation of agent by complexed (inactive) PSA, kinetic fluorescence reading; assay type: biochemical; conditions: 0.5 μM agent, optimized buffer pH 7.5
Chain of complexed PSA (P07288 25-261): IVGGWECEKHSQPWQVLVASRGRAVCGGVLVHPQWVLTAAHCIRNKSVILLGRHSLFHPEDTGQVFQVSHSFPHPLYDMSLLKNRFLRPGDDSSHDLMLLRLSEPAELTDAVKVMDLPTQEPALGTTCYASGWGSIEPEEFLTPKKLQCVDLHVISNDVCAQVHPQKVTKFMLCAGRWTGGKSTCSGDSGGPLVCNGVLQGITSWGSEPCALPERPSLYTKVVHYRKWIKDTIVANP
Chain of complexed PSA (P01011 24-423 partner): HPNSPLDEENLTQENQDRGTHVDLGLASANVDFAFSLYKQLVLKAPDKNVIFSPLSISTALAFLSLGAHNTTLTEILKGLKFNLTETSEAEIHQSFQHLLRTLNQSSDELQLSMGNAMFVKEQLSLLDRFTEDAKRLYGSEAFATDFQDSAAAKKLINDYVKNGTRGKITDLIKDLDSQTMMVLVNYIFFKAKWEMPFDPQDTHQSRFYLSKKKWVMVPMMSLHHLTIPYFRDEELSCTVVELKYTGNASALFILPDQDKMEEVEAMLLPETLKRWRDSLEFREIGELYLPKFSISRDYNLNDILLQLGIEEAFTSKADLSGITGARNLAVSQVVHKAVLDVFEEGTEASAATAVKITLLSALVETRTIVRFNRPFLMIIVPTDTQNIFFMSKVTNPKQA
Description: as §1, §2, §3

[3] = tested on: human prostate PSA+ LNCaP tumor; experiment: In vivo imaging of prostate cancer, FMT2500 reflectance and tomography, IVIS Spectrum; conditions: male Nu/Nu mice, 2 nmoles intravenously, imaged 6 hours later
Description: FIG. 2A depicts epi-fluorescent reflectance and tomographic images for sites of active PSA detected in prostate cancer expressing mice six hours post-injection using a prostate specific antigen activatable agent (compound A10).
As depicted in FIG. 2A, imaging studies were performed in human prostate PSA^+ LNCaP tumor-bearing male Nu/Nu mice. The mice were injected intravenously with 2 nmoles of test agent (compound A10) and were imaged 6 hours later on the FMT2500 (PerkinElmer Inc., Waltham, Mass.) (FMT 2D for epifluorescence, FMT 3D for tomography) in reflectance and tomographic modes, and on the IVIS Spectrum (PerkinElmer Inc., Waltham, Mass.).

[4] = tested on: LNCaP tumors (PSA+) and PC3 (PSA−) tumors; experiment: In vivo specificity imaging, LNCaP (PSA+) versus PC3 (PSA−) tumors, FMT2500; conditions: male Nu/Nu mice, 2 nmoles intravenously, imaged 24 hours later
Description: FIG. 2B is a histogram comparing fluorescence between prostate cancer expressing (PSA positive) and control (PSA negative) mice injected with the prostate specific antigen activatable agent (compound A10) and imaged tomographically.
Imaging studies were performed in LNCaP tumors (PSA+) and PC3 (PSA−) tumors tumor-bearing male Nu/Nu mice. The mice were injected intravenously with 2 nmoles of compound A10 and imaged 24 hours later on the FMT2500 (PerkinElmer Inc., Waltham, Mass.). Tumor fluorescence from positive and control mice was quantified and plotted.

Chain of active PSA (P07288 25-261): as the sequence (P07288 25-261) above

A10 (Ac-K[Hyp]SS[Chg]QSSK-{Y‑mPEG ~40 kDa}; also: conjugated with NHS ester of fluorophore F8, sites not given here) [Compound A10]
activation (fluorescence) in the presence of active PSA [1]: activated in the presence of active PSA
activation (fluorescence) in the presence of complexed PSA [2]: not complexed PSA
detection of sites of enzymatically active PSA in vivo [3]: Sites of active PSA are detected in the same locations for both reflectance and tomographic imaging
specificity of tumor fluorescence for PSA positive over PSA negative tumors [4]: specificity the prostate specific antigen activatable agents have for tumors containing enzymatically active PSA over PSA negative tumors in vivo
